Target: T1, EGFR protein (UniProt P00533 25-645)
T1 construct: EGFR; source: bought: R&D Systems (1095-ER)
Experiment: pull-down; Fc fusion protein and its partner incubated in lysis buffer overnight at 4 °C; Protein A/G magnetic beads; both orientations (N-EGFR-Fc with Ephrin A1; Ephrin A1-Fc with EGFR protein)
Settings: both partners purified

binding result: binds
B1: Ephrin A1-Fc protein (Fc fusion, UniProt P20827 19-182, looked up)
chain: DRHTVFWNSSNPKFRNEDYTIHVQLNDYVDIICPHYEDHSVADAAMEQYILYLVEHEEYQLCQPQSKDQVRWQCNRPSAKHGPEKLSEKFQRFTPFTLGKEFKEGHSYYYISKPIHQHEDRCLRLKVTVSGKITHSPQAHDNPQEKRLAADDPEVRVLHSIGHS
notes: Ephrin A1; source: bought: R&D Systems (6417-A1)

Source: publication PMC11876641, “Ephrin A1 functions as a ligand of EGFR to promote EMT and metastasis in gastric cancer” (The EMBO Journal, 2025)
